The target of assay [1] is HLA-A*02:03. Nature of the assay: IEDB peptide-MHC binding, purified MHC/competitive/radioactivity; filed as Kd, often an IC50 or EC50 that approximates it; ≥ and ≤ were set here for values at or beyond the usual limits of such assays.
The target of assay [2] is HLA-A*02:06. The assay is described as above.
In assay [3] the target is HLA-A*02:17. The assay is described as above.
The target of assay [4] is HLA-A*02:01. Described as above.
Assay [5] has as its target HLA-B*27:05. Nature of the assay: IEDB peptide-MHC binding, purified MHC/direct/fluorescence; filed as Kd, often an IC50 or EC50 that approximates it; ≥ and ≤ were set here for values at or beyond the usual limits of such assays.
Assay [6] has as its target HLA-A*01:01. The assay is described as above.
In assay [7] the target is HLA-B*46:01. Described as above.
For assay [8], the target named is HLA-A*11:01. The description is as above.
Assay [9] concerns the target HLA-B*40:01. The assay is described as above.
In assay [10] the target is HLA-B*08:01. The description is as above.
For assay [11], the target named is HLA-A*03:01. The assay is described as above.
The target of assay [12] is HLA-A*69:01. Described as above.
The target in assay [13] is HLA-B*44:02. The description is as above.
Assay [14] has as its target HLA-B*57:01. The description is as above. The conditions noted are these: source organism: Mycobacterium tuberculosis str. Haarlem.
Assay [15] addresses HLA-B*18:01. The description is as above. The conditions noted are these: source organism: Mycobacterium tuberculosis str. Haarlem.
For assay [16], the target named is HLA-A*31:01. Described as above.
For assay [17], the target named is HLA-A*03:01. Nature of the assay: IEDB peptide-MHC binding, purified MHC/competitive/fluorescence; filed as Kd, often an IC50 or EC50 that approximates it; ≥ and ≤ were set here for values at or beyond the usual limits of such assays.
The target of assay [18] is HLA-B*15:01. Nature of the assay: IEDB peptide-MHC binding, purified MHC/direct/fluorescence; filed as Kd, often an IC50 or EC50 that approximates it; ≥ and ≤ were set here for values at or beyond the usual limits of such assays.
Assay [19] has as its target HLA-A*02:01. Described as above.
Assay [20] concerns the target HLA-A*02:12. The assay is described as above. The conditions noted are these: source organism: Rift Valley fever virus.
In assay [21] the target is HLA-B*08:01. Nature of the assay: IEDB peptide-MHC binding, purified MHC/competitive/radioactivity; filed as Kd, often an IC50 or EC50 that approximates it; ≥ and ≤ were set here for values at or beyond the usual limits of such assays.
The target of assay [22] is HLA-B*15:01. The description is as above.
Assay [23] concerns the target HLA-A*68:02. The assay is described as above.
Assay [24] concerns the target HLA-A*01:01. Described as above. The conditions noted are these: source organism: Dengue virus 2 Jamaica/1409/1983.
The target in assay [25] is HLA-A*23:01. The assay is described as above. The conditions noted are these: source organism: Dengue virus 3 Sri Lanka/1266/2000.
For assay [26], the target named is HLA-B*53:01. The description is as above. The following applies: source organism: Dengue virus 3 Sri Lanka/1266/2000.
Assay [27] has as its target HLA-A*24:02. The assay is described as above. The conditions noted are these: source organism: Dengue virus 3 Sri Lanka/1266/2000.
In assay [28] the target is HLA-B*35:01. Described as above. The conditions noted are these: source organism: Dengue virus 3 Sri Lanka/1266/2000.
The target in assay [29] is HLA-A*26:01. Nature of the assay: IEDB peptide-MHC binding, purified MHC/direct/fluorescence; filed as Kd, often an IC50 or EC50 that approximates it; ≥ and ≤ were set here for values at or beyond the usual limits of such assays. The following applies: source organism: Escherichia coli O157:H7.
Assay [30] deals with HLA-B*58:01. Described as above. The conditions noted are these: source organism: Escherichia coli O157:H7.
Assay [31] has as its target HLA-B*07:02. The assay is described as above. The conditions noted are these: source organism: Escherichia coli O157:H7.
Where [32] appears, read: source organism: Dengue virus 3 Martinique/1243/1999.
The mark [33] stands for this setting: source organism: Dengue virus 3 China/80-2/1980.
[34] abbreviates: source organism: Mycobacterium tuberculosis str. Haarlem.
Setting [35] is: source organism: Rift Valley fever virus.
Setting [36] is: source organism: Dengue virus 2 Jamaica/1409/1983.
The mark [37] stands for this setting: source organism: Dengue virus 1 Brazil/97-11/1997.
Where [38] appears, read: source organism: Dengue virus 1 Singapore/S275/1990.
Setting [39] is: source organism: Vaccinia virus WR.
[40] abbreviates: source organism: Dengue virus 4 Philippines/H241/1956.
Where [41] appears, read: source organism: Dengue virus 3 Sri Lanka/1266/2000.
Where [42] appears, read: source organism: Lassa virus Josiah.
The mark [43] stands for this setting: source organism: Escherichia coli O157:H7.
Setting [44] is: source organism: Escherichia coli.
Where [45] appears, read: source organism: Dengue virus 2 Puerto Rico/PR159-S1/1969.

pKd: −log10 of the molar value.

Regarding QVMLLVLCAV, the pKd in assay [1] (setting [32]) was 6.22; in [2] (setting [32]), 7.93; in assay [3] (setting [33]), at most 4.45; in [4] (setting [33]) it was 6.84.

As for IMANRAQVL, the negative logarithm of the Kd (pKd) in assay [5] (setting [34]) is at most 4.70; in assay [6] (setting [34]) it was at most 4.70; in [7] (setting [34]) it was at most 4.70; in assay [8] (setting [34]), at most 4.70; in [9] (setting [34]), at most 4.70; in [10] (setting [34]), 6.48. The pKd in [11] (setting [34]), in [12] (setting [34]), in assay [13] (setting [34]), in [14], in [15] and in assay [16] (setting [34]) was at most 4.70 throughout.

In assay [17] (source organism: Vibrio cholerae 2740-80), LLANILSEH had a pKd of 6.28.

On to YLKEACNHA, for which the pKd was 6.19 in [18] (setting [35]), 6.62 in assay [19] (setting [35]), 6.33 in assay [12] (setting [35]) and 7.28 in [20].

In the case of SIILEFFLIV, the pKd was 7.36 in assay [2] (setting [36]), 5.40 in assay [3] (setting [36]) and 7.52 in assay [4] (setting [36]).

Consider LLMLVTPSM, for which the pKd in assay [21] (setting [37]) was 5.97; in assay [3] (setting [38]) it was 7.61; in assay [22] (setting [37]), 8.65; in [4] (setting [38]), 8.10.

As to MVHIYFVSL, the pKd was 8.87 in [21] (setting [39]) and 5.26 in [22] (setting [39]).

TSMAMTCIAV: the pKd in assay [2] (setting [40]) is 8.04; in assay [3] (setting [40]), 7.20; in [4] (setting [40]), 7.91; in assay [23] (setting [40]), 8.78.

For TAAAWYLWEV, the pKd in assay [2] (setting [36]) was 8.89; in assay [3] (setting [36]), 5.99; in assay [4] (setting [36]) it was 7.99; in [23] (setting [36]) it was 8.39.

As to ILLKATLLAV, the pKd in assay [1] (setting [37]) was 8.66; in [2] (setting [37]) it was 7.74; in assay [3] (setting [38]), 6.50; in assay [4] (setting [38]), 8.65.

Consider LTAALLLLV, for which the pKd was at most 4.37 in assay [24]; 8.43 in assay [2] (setting [36]); at most 4.38 in [3] (setting [36]); 5.24 in assay [4] (setting [36]); 8.27 in assay [23] (setting [36]).

Regarding MMILPAALAF, the pKd in assay [25] is 6.92; in assay [26], 5.19; in [27], 6.04; in assay [22] (setting [41]), 8.62; in assay [28], 5.83.

For LLLLGLMILL, the pKd is 7.67 in assay [2] (setting [32]), 7.02 in assay [3] (setting [33]) and 7.93 in [4] (setting [33]).

With YLEFEALGFL, the pKd is 7.34 in [3] (setting [33]) and 7.11 in assay [4] (setting [33]).

For the sequence VMAVGLVSI, the values for the pKd in [1] (setting [32]) and in assay [3] (setting [33]) were 8.95 and 5.49, respectively.

As for MIAGVFFTFV, the pKd was at least 10.00 in assay [1] (setting [32]); 8.99 in [2] (setting [32]); 7.08 in assay [3] (setting [41]); 7.90 in assay [4] (setting [41]); 8.55 in assay [23] (setting [32]).

In turn, KMARAGLGH showed a pKd in assay [17] (source organism: Escherichia coli O157:H7 str. EDL933) of 7.60.

For the sequence GLVECNNHY, the pKd is at most 4.70 in assay [7] (setting [42]) and 6.74 in assay [18] (setting [42]).

Take LQWIASAIVL: the pKd was 5.30 in assay [21] (setting [32]) and 8.19 in assay [22] (setting [32]).

With VILAGPMPV, the pKd in assay [3] (setting [36]) is 5.87.

KLTDWDFVV: the values for the pKd in assay [2] (setting [40]), in [3] (setting [40]) and in assay [4] (source organism: dengue virus type 4) were 8.63, 6.13 and 7.21, respectively.

On to HMIAGVFFT, for which the pKd in assay [3] (setting [41]) was 5.85; in [4] (setting [41]), 8.05.

AQRPAKYSY: the pKd in [5] (setting [43]), in assay [6] (setting [43]), in [7] (setting [43]), in [8] (setting [43]), in assay [9] (setting [43]) and in assay [29] was at most 4.70 each time. The pKd was at most 4.70 in [10] (setting [43]); at most 4.70 in [11] (setting [43]); 6.88 in assay [18] (setting [44]); at most 4.70 in [30]; at most 4.70 in assay [19] (setting [43]); at most 4.70 in assay [12] (setting [43]). Besides, the pKd in [13] (setting [43]) was at most 4.70; in [16] (setting [44]) it was 6.21; in assay [31], at most 4.70.

As to FLDLPLPWAA, the pKd in assay [2] (setting [40]) is 7.23; in assay [3] (setting [40]), 6.30; in assay [4] (setting [40]) it was 8.38.

With ALALFDLLK, the pKd in assay [17] (source organism: Escherichia coli O139:H28 str. E24377A) was 7.25.

Take LLLLTLLATV: the pKd in assay [1] (setting [36]) was 8.86; in assay [2] (setting [36]) it was 7.62; in assay [3] (setting [36]), 7.26; in assay [4] (setting [36]), 7.19.

On to TLYAVATTFI, for which the pKd in assay [1] (source organism: Dengue virus 2 Peru/IQT2913/1996) was 7.86; in assay [3] (setting [45]), 5.89; in assay [4] (setting [45]), 7.06.

As for ILIGFLVLWI, the pKd is 5.52 in assay [3] (setting [40]) and 7.01 in assay [4] (setting [40]).

Values taken from the Immune Epitope Database (IEDB).
